# According to patent US5079230A, “Stable bioactive somatotropins” (Pitman-Moore, Inc., priority 1988, dated 1992):
# T1: pregnant rabbit liver membranes (Oryctolagus cuniculus, UniProt P19941)
# T1 construct: pregnant rabbit liver membranes; from tissue; host or cells: liver membranes of pregnant rabbits
# T1 sequence (P19941 19-638): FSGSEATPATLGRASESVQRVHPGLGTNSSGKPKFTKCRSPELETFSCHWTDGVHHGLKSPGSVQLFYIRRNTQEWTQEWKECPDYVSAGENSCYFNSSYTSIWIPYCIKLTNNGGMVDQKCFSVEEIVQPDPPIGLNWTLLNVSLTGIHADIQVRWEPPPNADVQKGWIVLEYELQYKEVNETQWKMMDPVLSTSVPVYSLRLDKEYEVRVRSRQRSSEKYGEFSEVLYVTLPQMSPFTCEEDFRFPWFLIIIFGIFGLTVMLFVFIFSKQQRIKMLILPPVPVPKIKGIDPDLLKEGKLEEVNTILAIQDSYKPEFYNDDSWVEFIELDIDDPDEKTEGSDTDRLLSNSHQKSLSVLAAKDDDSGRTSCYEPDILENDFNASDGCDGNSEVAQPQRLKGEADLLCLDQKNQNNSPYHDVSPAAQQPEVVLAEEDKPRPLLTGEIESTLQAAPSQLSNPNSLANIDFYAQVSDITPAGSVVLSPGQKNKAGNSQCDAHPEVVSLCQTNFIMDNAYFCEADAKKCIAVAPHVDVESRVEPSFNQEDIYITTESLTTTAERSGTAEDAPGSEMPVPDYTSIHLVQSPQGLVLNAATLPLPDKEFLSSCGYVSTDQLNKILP
# T2: porcine liver membranes (Sus scrofa, UniProt P19756)
# T2 construct: porcine liver membranes; from tissue; host or cells: porcine liver membranes
# T2 sequence (P19756 19-638): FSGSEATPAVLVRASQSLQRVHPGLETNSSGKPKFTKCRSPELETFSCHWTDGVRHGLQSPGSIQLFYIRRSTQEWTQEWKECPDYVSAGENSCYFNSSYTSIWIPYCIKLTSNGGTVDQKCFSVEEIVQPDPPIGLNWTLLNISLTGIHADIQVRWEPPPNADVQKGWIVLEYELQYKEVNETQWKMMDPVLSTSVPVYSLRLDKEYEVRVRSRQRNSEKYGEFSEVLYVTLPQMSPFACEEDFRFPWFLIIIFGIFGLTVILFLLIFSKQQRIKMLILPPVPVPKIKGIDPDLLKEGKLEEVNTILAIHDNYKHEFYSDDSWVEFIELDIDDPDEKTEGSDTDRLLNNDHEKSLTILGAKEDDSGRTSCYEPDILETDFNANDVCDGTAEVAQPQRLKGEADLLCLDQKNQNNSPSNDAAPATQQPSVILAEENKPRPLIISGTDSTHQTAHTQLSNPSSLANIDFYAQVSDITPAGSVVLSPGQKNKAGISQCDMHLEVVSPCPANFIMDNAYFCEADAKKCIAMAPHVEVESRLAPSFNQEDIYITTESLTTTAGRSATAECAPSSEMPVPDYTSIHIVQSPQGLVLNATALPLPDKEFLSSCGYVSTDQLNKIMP
# B1: pST Standard: pST standard of the hypox rat assay; footnote mentions pituitary derived pST standard (protein, UniProt P01248 27-216, looked up)
# Somatotropin: FPAMPLSSLFANAVLRAQHLHQLAADTYKEFERAYIPEGQRYSIQNAQAAFCFSETIPAPTGKDEAQQRSDVELLRFSLLLIQSWLGPVQFLSRVFTNSLVFGTSDRVYEKLKDLEEGIQALMRELEDGSPRAGQILKQTYDKFDTNLRSDDALLKNYGLLSCFKKDLHKAETYLRVMKCRRFVESSCAF
# B2: Dialyzed Zn-rpST: dialyzed zinc recombinant porcine somatotropin (protein, UniProt P01248 27-216, looked up)
# Somatotropin: B1 Somatotropin
# modifications: zinc form
# notes: dialyzed zinc recombinant porcine somatotropin
# B3: small-loop derivatized rpST: recombinant porcine somatotropin with small-loop disulfide reduced with 2-mercaptoethanol and sulfhydryls carbamidomethylated with iodoacetamide (Example 1) (protein, UniProt P01248 27-216, looked up)
# Somatotropin: B1 Somatotropin
# modifications: small-loop cysteines carbamidomethylated
# B4: Non-derivatized Zn-rpST: zinc form of non-derivatized recombinant porcine somatotropin (protein, UniProt P01248 27-216, looked up)
# Somatotropin: B1 Somatotropin
# modifications: zinc form
# notes: zinc form of non-derivatized recombinant porcine somatotropin
# B5: non-derivatized rpST: unmodified recombinant porcine somatotropin produced in E. coli ATCC 53031 (protein, UniProt P01248 27-216, looked up)
# Somatotropin: B1 Somatotropin
# modifications: E. coli recombinant
# B6: Small-loop derivatized Zn-RpST: zinc form of small-loop derivatized recombinant porcine somatotropin (protein, UniProt P01248 27-216, looked up)
# Somatotropin: B1 Somatotropin
# modifications: zinc form; small-loop cysteines carbamidomethylated
# notes: zinc form of small-loop derivatized recombinant porcine somatotropin
# Tests used:
# [1] = test system: hypophysectomized (hypox) rats; test: body weight gain in hypophysectomized (hypox) rats; assay type: in vivo, rat; conditions: for % Weight Gain Mean: hypox rats, 24 ug pST/day for 9 days, weight gain over a 10 day period; for % Relative Bioactivity: relative to the pituitary derived pST standard tested at similar concentration, 24 ug
# Protocol: The relative bioactivity and biopotency of non-derivatized rpST and small-loop derivatized rpST prepared according to the method of Example 1 was determined by measuring the body weight gain in hypophysectomized (hypox) rats. Four (4) groups of 10 hypox rats per group received 24 μg pST/day of pST standard, dialyzed Zn-rpST, small-loop derivatized Zn-rpST, or non-derivatized Zn-rpSt for 9 days. Rats were monitored daily and their body weight gains recorded over a 10 day period. The weight gain was measured and the percent relative bioactivity calculated as a percent of standard.
# [2] = target: T1, pregnant rabbit liver membranes; test: pST binding assay using pregnant rabbit liver membranes and 125I-labelled rpST; conditions: calculated from the IC-50 data relative to the standard
# Protocol: The bioactivity of non-derivatized rpST and small-loop derivatized rpST prepared according to the method of Example 1 was determined by pST binding assays using pregnant rabbit liver membranes and ^125 I-labelled rpST. A modified version of the assay disclosed in Tsushima et al., Radioreceptor Assay for Growth Hormone, J. Clin. Endocrinol. Metab., 37:334-337 (1973) was used: The rpST sample was incubated at 30° C. for 3.5 hours with 16,000 cpm ^125 I-rpST. The range of concentration used for the displacement curve of the rpST standard and small-loop derivatized rpST was between 0.38-200 ng/ml. Additional information for the pST binding assay are described in Tsushima et al., Radioreceptor Assay for Growth Hormone, J. Clin. Endocrinol. Metab., 37:334-337 (1973).
# [3] = stability in the wetted state, rpST monomer recovery; assay type: physicochemical; conditions: 5 mg wetted with Tris-HCl pH 7.4 or carbonate buffer pH 9.8, 14 days at 37° C.; compared with non-derivatized rpST
# Protocol: Non-derivatized rpST and small-loop derivatized rpST (prepared with IA according to Example 1) containing 5 mg/ml were dialyzed against 0.46 mM carbonate buffer an lyophilized to produce dry rpST samples for further testing. Five mg of dry small-loop derivatized and non-derivatized rpST were wetted with 0.01 ml of 50 mM Tris-HCl, pH 7.4, 0.05% sodium azide or 46 mM carbonate buffer, pH 9.8, 0.05% sodium azide. The paste was allowed to incubate for 14 days at 37° C. At the end of this time, the rpST was diluted to a final concentration of about 1.8 mg/ml in 46 mM carbonate buffer, pH 9.8, sonicated in a Branisonic 220 sonicator for several minutes, and centrifuged at 15,000×G for 5 minutes. The supernatant was analyzed for monomer content by the chromatographic procedure described in Example 6.
# porcine liver membranes = target: T2, porcine liver membranes; test: binding activity in porcine liver membranes (homologous somatotropin radioreceptor assay); conditions: relative to unmodified (non-derivatized) rpST = 100%
# Protocol: The bioactivity of non-derivatized rpST and small-loop derivatized rpST prepared according to the method of Example 1 was determined using binding activity in porcine liver membranes according to a modification of the method in Haro et al., Homologous Somatotropin Radio Receptor Assay Utilizing Recombinant Bovine Growth Hormone, Mol. Cell Endocrinol., 38:109-116 (1985).
# [4] = solution stability, rpST monomer by Superose-12 size-exclusion chromatography; assay type: physicochemical; conditions: 8 mg/ml, carbonate buffer pH 9.8 or phosphate buffered saline pH 7.4, 37° C., 0.6-120 days; compared with non-derivatized rpST
# Protocol: 8 mg/ml non-derivatized rpST and small-loop derivatized rpST (prepared with IA according to Example 1) solutions containing 0.5% sodium azide were prepared in either 46 mM carbonate buffer (pH 9.8) or phosphate buffered saline (pH 7.4). Aliquots of 1.25 ml were incubated in Eppendorf Microcentrifuge tubes for 0.6, 4.6, 8.8, 22 and 120 days at 37° C.
# At the end of each incubation period the aliquots were removed and analyzed for rpST monomer using Superose-12 size-exclusion chromatography with a mobile phase of 46 mM carbonate buffer (pH 9.8).
Molecule,relative bioactivity ([1]; at equivalent dose when the ST was dissolved in 9.5 high pH buffer),% Weight Gain Mean [1],% Relative Bioactivity [1],percent activity [2],recovery of rpST monomer [3],activity (porcine liver membranes),percentage of monomer recovered [4]
B1,51%,23.1%,55%,–,–,–,–
B2,–,14.4%,62%,–,–,–,–
B3,–,13.5%,–,181%,much greater,125%,higher percentage of monomer recovered
B4,–,17.1%,74%,–,–,–,–
B5,–,14.4%,–,about 75%,–,100%,–
B6,–,13.5%,58%,–,–,–,–
